In IntAct's records for PubMed 19017798:

B1: Latent membrane protein 1 (Epstein-Barr virus (strain B95-8) (HHV-4)), P03230 (parent)
chain: MEHDLERGPPGPRRPPRGPPLSSSLGLALLLLLLALLFWLYIVMSDWTGGALLVLYSFALMLIIIILIIFIFRRDLLCPLGALCILLLMITLLLIALWNLHGQALFLGIVLFIFGCLLVLGIWIYLLEMLWRLGATIWQLLAFFLAFFLDLILLIIALYLQQNWWTLLVDLLWLLLFLAILIWMYYHGQRHSDEHHHDDSLPHPQQATDDSGHESDSNSNEGRHHLLVSGAGDGPPLCSQNLGAPGGGPDNGPQDPDNTDDNGPQDPDNTDDNGPHDPLPQDPDNTDDNGPQDPDNTDDNGPHDPLPHSPSDSAGNDGGPPQLTEEVENKGGDQGPPLMTDGGGGHSHDSGHGGGDPHLPTLLLGSSGSGGDDDDPHGPVQLSYYD
partner: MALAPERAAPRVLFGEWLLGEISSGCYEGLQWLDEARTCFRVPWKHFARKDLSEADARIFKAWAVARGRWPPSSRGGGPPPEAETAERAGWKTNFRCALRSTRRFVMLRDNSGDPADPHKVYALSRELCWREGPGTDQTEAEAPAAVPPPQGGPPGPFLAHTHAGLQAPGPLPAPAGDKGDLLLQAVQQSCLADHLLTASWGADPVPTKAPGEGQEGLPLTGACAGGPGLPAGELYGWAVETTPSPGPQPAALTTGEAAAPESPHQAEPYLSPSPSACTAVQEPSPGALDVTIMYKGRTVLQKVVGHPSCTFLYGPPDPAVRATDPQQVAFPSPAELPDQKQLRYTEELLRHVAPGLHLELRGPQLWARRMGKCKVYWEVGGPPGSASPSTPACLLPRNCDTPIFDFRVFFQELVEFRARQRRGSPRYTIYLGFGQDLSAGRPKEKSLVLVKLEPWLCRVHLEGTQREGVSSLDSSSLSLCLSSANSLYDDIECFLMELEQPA

Variants of: B1
Settings: with IRF7, Q92985-1

Variant | effect of a mutation on the interaction
P376A;H377A;G378A;P379A;V380A;Q381A;L382A;S383A | disrupting interaction
